Source: article PMC2196876

Target: epitope-tagged full-length hVam6p (HA–hVam6p and Myc–hVam6p) (human)
Test: sucrose gradient sedimentation velocity with immunoprecipitation of fractions

epitope-tagged full-length hVam6p (HA–hVam6p and Myc–hVam6p) (natural protein)
stoichiometry N: 3
